In US20260265381A1:

Experiments:
[1] = target: human HLA-G expressed on cells (JEG3 cells, natural; SKOV3 cells transfected with recombinant HLA-G) (human) (UniProt P17693); assay: flow cytometry on SKOV3 HLA-G cells (SKOV3 transfected with HLA-G); isotype control; detection with goat anti-human IgG (H+L) Alexa 488
[2] = target: human HLA-G expressed on cells (JEG3 cells, natural; SKOV3 cells transfected with recombinant HLA-G) (human) (UniProt P17693); assay: flow cytometry on JEG3 cells (natural HLA-G); isotype control; detection with goat anti-human IgG (H+L) Alexa 488

Isotype (antibody)
MFI [1]: 78
MFI [2]: 57
